In patent US20150376275A1 one finds KIR occupancy data, which are given here for 1 substance.

Experiment [1] addresses KIR (KIR2D receptors; KIR2DL1 and 2/3) on the patients' NK cells. Kind of experiment: receptor occupancy on patients' NK cells by flow cytometry after a single i.v. dose of 0.003 mg/kg (AML dose-escalation trial).
Experiment [2] shares this target. Kind of experiment: receptor occupancy on patients' NK cells by flow cytometry after a single i.v. dose of 0.0003 mg/kg (AML dose-escalation trial). (A flow cytometer gives signals particle by particle.)

In the case of “fully human anti-KIR2DL1, 2 and 3 monoclonal antibody 1-7F9”, the values for the KIR occupancy in experiment [1] and in experiment [2] were 90% and 50%, respectively.
